Tests used:
C.PvuII [1] = experiment: EMSA
C.PvuII [2] = experiment: competition

Row | Substance | K half (C.PvuII [1]) [nM] | binding signal (% loss of shifted WWWW band) (C.PvuII [2])
1 | WWWW C-box 126-mer (symmetrized, spacer TGTA) | 200 | –
2 | WWRR C-box 126-mer (OL intact) | – | 95

— PMC2175313
